The values that follow are results of earlier work, collected in article PMC8249329.

The target of the data set is ACE2 (Homo sapiens) (UniProt Q9BYF1).
Chain of ACE2 (Homo sapiens) (Q9BYF1 18-740): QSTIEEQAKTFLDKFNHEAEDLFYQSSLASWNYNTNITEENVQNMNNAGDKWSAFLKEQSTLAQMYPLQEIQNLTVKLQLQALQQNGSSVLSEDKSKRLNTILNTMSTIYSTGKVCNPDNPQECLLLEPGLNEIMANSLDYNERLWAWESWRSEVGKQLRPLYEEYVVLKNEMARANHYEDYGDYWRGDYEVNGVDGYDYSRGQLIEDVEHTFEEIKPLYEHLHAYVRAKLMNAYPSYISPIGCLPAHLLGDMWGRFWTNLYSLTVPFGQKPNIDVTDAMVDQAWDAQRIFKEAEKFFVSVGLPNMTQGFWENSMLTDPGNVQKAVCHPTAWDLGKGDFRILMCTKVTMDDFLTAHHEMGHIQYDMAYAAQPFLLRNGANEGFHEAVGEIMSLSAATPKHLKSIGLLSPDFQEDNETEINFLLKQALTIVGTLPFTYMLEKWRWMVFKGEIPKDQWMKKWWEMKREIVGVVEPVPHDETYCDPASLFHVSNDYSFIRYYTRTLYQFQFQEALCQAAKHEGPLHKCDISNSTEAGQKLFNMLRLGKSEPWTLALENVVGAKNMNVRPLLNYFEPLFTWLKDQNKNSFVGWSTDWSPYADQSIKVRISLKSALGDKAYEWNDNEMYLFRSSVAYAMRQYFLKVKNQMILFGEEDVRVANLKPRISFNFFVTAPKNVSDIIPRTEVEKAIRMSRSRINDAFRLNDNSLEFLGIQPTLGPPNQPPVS

Chain of HCoV-NL63 spike RBD (Q6Q1S2 481-616): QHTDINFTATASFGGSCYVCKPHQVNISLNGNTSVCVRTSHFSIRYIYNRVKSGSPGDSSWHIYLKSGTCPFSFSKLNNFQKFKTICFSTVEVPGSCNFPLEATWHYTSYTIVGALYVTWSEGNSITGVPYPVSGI

As a reminder, the Kd is the constant that tells how readily two partners part at equilibrium. With “HCoV-NL63 spike RBD (from UniProt Q6Q1S2)”, the Kd was 35 nM.
